Numbering of substitutions follows the chain as printed.
T1: FcγRIIA protein (UniProt P12318 36-218, limits assumed)
T1 construct: also called hFcγRIIA
T1 sequence (looked up): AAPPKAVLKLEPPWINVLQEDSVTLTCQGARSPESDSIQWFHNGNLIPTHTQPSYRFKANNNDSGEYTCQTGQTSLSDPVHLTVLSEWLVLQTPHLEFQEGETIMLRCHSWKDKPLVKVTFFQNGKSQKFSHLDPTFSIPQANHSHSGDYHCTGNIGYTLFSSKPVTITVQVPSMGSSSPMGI

B1: Seq2-Sf9 (other)
chain: VDKKIVPADCGCAPCICAVPEVSSVFIFPPKPKDVLTITLTPKVTCVVVDISKDDPEVQFSWFVDDVEVHTAQTQPREEQFNSTFRSVSELPIMHQDWLNGKEFKCRVNSAAFPAPIEKTISKTKGRPKAPQVYTIPPPKEQMAKDKVSLTCMITDFFPEDITVEWQWNGQPAENYKNTQPIMDTDGSYFVYSKLNVQKSNWEAGNTFTCSVLHEGLHNHHTEKSLSHSPGL
modifications: non-mammalian (insect, Sf9) N-glycosylation at position 297 (EU numbering), without sialic acid
notes: Expressed from the pFastBacHTa-gp64 vector in Sf9 cells and purified from the supernatant by Protein A, about 26 kDa on SDS-PAGE; also called mouse Fc with three mutations
B2: Seq3-Sf9 (other)
chain: B1 chain with A115L, I117E
modifications: non-mammalian (insect, Sf9) N-glycosylation at position 297 (EU numbering), without sialic acid
notes: also called mouse Fc with five mutations

Biological target: T1, FcγRIIA protein
Test: BLI, multi-concentration (5000-312.5 nM of Fc variant)
From the text: The Seq2-Sf9 and Seq3-Sf9 are identified using Coomassie Brilliant Blue stained SDS-PAGE gel, with BSA as a control protein. The arrows indicate the positions of Seq2-Sf9 and Seq3-Sf9, and it can be determined that the purified protein is obtained with a molecular weight of about 26 kDa. […] The curves shown from bottom to top indicate that the concentrations of the Seq2-Sf9 and Seq3-Sf9 proteins […] in sequence.

Binder	Kd
B1	789 nM
B2	450 nM

— US20250144194A1 (KAIMI BIOMEDICINE CHENGDU, published 2025)
